Data as given in patent publication US20200087373A1 (UNIVERSITY OF COPENHAGEN, published 2020).
Ends that are not written are not given here. * marks the point of attachment. C16 diacid = O=C(O)CCCCCCCCCCCCCCC(=O)*

T1: human GIP receptor (human, UniProt P48546 22-466)
T1 construct: whole, on cells; also called hGIPR
T1 sequence (looked up): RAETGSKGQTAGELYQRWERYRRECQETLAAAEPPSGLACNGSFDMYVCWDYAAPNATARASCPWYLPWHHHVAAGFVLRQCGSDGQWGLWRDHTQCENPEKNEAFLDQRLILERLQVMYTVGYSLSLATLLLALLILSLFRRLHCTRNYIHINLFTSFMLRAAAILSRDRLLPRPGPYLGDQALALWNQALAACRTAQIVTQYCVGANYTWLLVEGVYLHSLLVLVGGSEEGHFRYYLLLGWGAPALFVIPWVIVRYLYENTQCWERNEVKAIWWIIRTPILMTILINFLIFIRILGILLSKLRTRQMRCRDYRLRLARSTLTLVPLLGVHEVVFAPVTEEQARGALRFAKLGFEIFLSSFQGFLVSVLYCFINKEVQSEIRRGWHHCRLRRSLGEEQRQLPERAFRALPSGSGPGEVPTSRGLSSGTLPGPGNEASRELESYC

B1: AT174 [hGIP(5-30)NH2[I12K]-C16diacid/12] (peptide)
peptide: TFISDYSK(C16 diacid)AMDKIHQQDFVNWLLAQK-NH2
modifications: N-terminus assumed
SMILES: CC[C@H](C)[C@H](NC(=O)[C@H](CCCCN)NC(=O)[C@H](CC(=O)O)NC(=O)[C@H](CCSC)NC(=O)[C@H](C)NC(=O)[C@H](CCCCNC(=O)CCCCCCCCCCCCCCC(=O)O)NC(=O)[C@H](CO)NC(=O)[C@H](Cc1ccc(O)cc1)NC(=O)[C@H](CC(=O)O)NC(=O)[C@H](CO)NC(=O)[C@@H](NC(=O)[C@H](Cc1ccccc1)NC(=O)[C@@H](N)[C@@H](C)O)[C@@H](C)CC)C(=O)N[C@@H](Cc1c[nH]cn1)C(=O)N[C@@H](CCC(N)=O)C(=O)N[C@@H](CCC(N)=O)C(=O)N[C@@H](CC(=O)O)C(=O)N[C@@H](Cc1ccccc1)C(=O)N[C@H](C(=O)N[C@@H](CC(N)=O)C(=O)N[C@@H](Cc1c[nH]c2ccccc12)C(=O)N[C@@H](CC(C)C)C(=O)N[C@@H](CC(C)C)C(=O)N[C@@H](C)C(=O)N[C@@H](CCC(N)=O)C(=O)N[C@@H](CCCCN)C(N)=O)C(C)C
B2: AT175 [hGIP(5-30)NH2[A13K]-C16diacid/13] (peptide)
peptide: TFISDYSIK(C16 diacid)MDKIHQQDFVNWLLAQK-NH2
modifications: N-terminus assumed
SMILES: CC[C@H](C)[C@H](NC(=O)[C@H](CCCCN)NC(=O)[C@H](CC(=O)O)NC(=O)[C@H](CCSC)NC(=O)[C@H](CCCCNC(=O)CCCCCCCCCCCCCCC(=O)O)NC(=O)[C@@H](NC(=O)[C@H](CO)NC(=O)[C@H](Cc1ccc(O)cc1)NC(=O)[C@H](CC(=O)O)NC(=O)[C@H](CO)NC(=O)[C@@H](NC(=O)[C@H](Cc1ccccc1)NC(=O)[C@@H](N)[C@@H](C)O)[C@@H](C)CC)[C@@H](C)CC)C(=O)N[C@@H](Cc1c[nH]cn1)C(=O)N[C@@H](CCC(N)=O)C(=O)N[C@@H](CCC(N)=O)C(=O)N[C@@H](CC(=O)O)C(=O)N[C@@H](Cc1ccccc1)C(=O)N[C@H](C(=O)N[C@@H](CC(N)=O)C(=O)N[C@@H](Cc1c[nH]c2ccccc12)C(=O)N[C@@H](CC(C)C)C(=O)N[C@@H](CC(C)C)C(=O)N[C@@H](C)C(=O)N[C@@H](CCC(N)=O)C(=O)N[C@@H](CCCCN)C(N)=O)C(C)C
B3: AT176 [hGIP(5-30)NH2[M14K]-C16diacid/14] (peptide)
peptide: TFISDYSIAK(C16 diacid)DKIHQQDFVNWLLAQK-NH2
modifications: N-terminus assumed
SMILES: CC[C@H](C)[C@H](NC(=O)[C@H](CO)NC(=O)[C@H](Cc1ccc(O)cc1)NC(=O)[C@H](CC(=O)O)NC(=O)[C@H](CO)NC(=O)[C@@H](NC(=O)[C@H](Cc1ccccc1)NC(=O)[C@@H](N)[C@@H](C)O)[C@@H](C)CC)C(=O)N[C@@H](C)C(=O)N[C@@H](CCCCNC(=O)CCCCCCCCCCCCCCC(=O)O)C(=O)N[C@@H](CC(=O)O)C(=O)N[C@@H](CCCCN)C(=O)N[C@H](C(=O)N[C@@H](Cc1c[nH]cn1)C(=O)N[C@@H](CCC(N)=O)C(=O)N[C@@H](CCC(N)=O)C(=O)N[C@@H](CC(=O)O)C(=O)N[C@@H](Cc1ccccc1)C(=O)N[C@H](C(=O)N[C@@H](CC(N)=O)C(=O)N[C@@H](Cc1c[nH]c2ccccc12)C(=O)N[C@@H](CC(C)C)C(=O)N[C@@H](CC(C)C)C(=O)N[C@@H](C)C(=O)N[C@@H](CCC(N)=O)C(=O)N[C@@H](CCCCN)C(N)=O)C(C)C)[C@@H](C)CC
B4: AT177 [hGIP(5-30)NH2[D15K]-C16diacid/15] (peptide)
peptide: TFISDYSIAMK(C16 diacid)KIHQQDFVNWLLAQK-NH2
modifications: N-terminus assumed
SMILES: CC[C@H](C)[C@H](NC(=O)[C@H](CO)NC(=O)[C@H](Cc1ccc(O)cc1)NC(=O)[C@H](CC(=O)O)NC(=O)[C@H](CO)NC(=O)[C@@H](NC(=O)[C@H](Cc1ccccc1)NC(=O)[C@@H](N)[C@@H](C)O)[C@@H](C)CC)C(=O)N[C@@H](C)C(=O)N[C@@H](CCSC)C(=O)N[C@@H](CCCCNC(=O)CCCCCCCCCCCCCCC(=O)O)C(=O)N[C@@H](CCCCN)C(=O)N[C@H](C(=O)N[C@@H](Cc1c[nH]cn1)C(=O)N[C@@H](CCC(N)=O)C(=O)N[C@@H](CCC(N)=O)C(=O)N[C@@H](CC(=O)O)C(=O)N[C@@H](Cc1ccccc1)C(=O)N[C@H](C(=O)N[C@@H](CC(N)=O)C(=O)N[C@@H](Cc1c[nH]c2ccccc12)C(=O)N[C@@H](CC(C)C)C(=O)N[C@@H](CC(C)C)C(=O)N[C@@H](C)C(=O)N[C@@H](CCC(N)=O)C(=O)N[C@@H](CCCCN)C(N)=O)C(C)C)[C@@H](C)CC
B5: AT178 [hGIP(5-30)NH2[I17K]-C16diacid/17] (peptide)
peptide: TFISDYSIAMDKK(C16 diacid)HQQDFVNWLLAQK-NH2
modifications: N-terminus assumed
SMILES: CC[C@H](C)[C@H](NC(=O)[C@H](CO)NC(=O)[C@H](Cc1ccc(O)cc1)NC(=O)[C@H](CC(=O)O)NC(=O)[C@H](CO)NC(=O)[C@@H](NC(=O)[C@H](Cc1ccccc1)NC(=O)[C@@H](N)[C@@H](C)O)[C@@H](C)CC)C(=O)N[C@@H](C)C(=O)N[C@@H](CCSC)C(=O)N[C@@H](CC(=O)O)C(=O)N[C@@H](CCCCN)C(=O)N[C@@H](CCCCNC(=O)CCCCCCCCCCCCCCC(=O)O)C(=O)N[C@@H](Cc1c[nH]cn1)C(=O)N[C@@H](CCC(N)=O)C(=O)N[C@@H](CCC(N)=O)C(=O)N[C@@H](CC(=O)O)C(=O)N[C@@H](Cc1ccccc1)C(=O)N[C@H](C(=O)N[C@@H](CC(N)=O)C(=O)N[C@@H](Cc1c[nH]c2ccccc12)C(=O)N[C@@H](CC(C)C)C(=O)N[C@@H](CC(C)C)C(=O)N[C@@H](C)C(=O)N[C@@H](CCC(N)=O)C(=O)N[C@@H](CCCCN)C(N)=O)C(C)C
B6: AT179 [hGIP(5-30)NH2[Q19K]-C16diacid/19] (peptide)
peptide: TFISDYSIAMDKIHK(C16 diacid)QDFVNWLLAQK-NH2
modifications: N-terminus assumed
SMILES: CC[C@H](C)[C@H](NC(=O)[C@H](CO)NC(=O)[C@H](Cc1ccc(O)cc1)NC(=O)[C@H](CC(=O)O)NC(=O)[C@H](CO)NC(=O)[C@@H](NC(=O)[C@H](Cc1ccccc1)NC(=O)[C@@H](N)[C@@H](C)O)[C@@H](C)CC)C(=O)N[C@@H](C)C(=O)N[C@@H](CCSC)C(=O)N[C@@H](CC(=O)O)C(=O)N[C@@H](CCCCN)C(=O)N[C@H](C(=O)N[C@@H](Cc1c[nH]cn1)C(=O)N[C@@H](CCCCNC(=O)CCCCCCCCCCCCCCC(=O)O)C(=O)N[C@@H](CCC(N)=O)C(=O)N[C@@H](CC(=O)O)C(=O)N[C@@H](Cc1ccccc1)C(=O)N[C@H](C(=O)N[C@@H](CC(N)=O)C(=O)N[C@@H](Cc1c[nH]c2ccccc12)C(=O)N[C@@H](CC(C)C)C(=O)N[C@@H](CC(C)C)C(=O)N[C@@H](C)C(=O)N[C@@H](CCC(N)=O)C(=O)N[C@@H](CCCCN)C(N)=O)C(C)C)[C@@H](C)CC

Key:
[1] = target: T1, human GIP receptor; assay: IC50 with 2% HSA over IC50 with 0.1% casein, 125I-hGIP competition, COS-7/hGIPR
Method: (§1) After incubation, the cells were washed twice in ice-cold binding buffer (+/−2% HSA) and lysed using 200 mM NaOH with 1% SDS for 30 min. Nonspecific binding was determined as the binding of radioactive ligand to untransfected cells.

[2] = target: T1, human GIP receptor; assay: 125I-hGIP competition binding, COS-7 cells expressing hGIPR;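 also: nonspecific binding taken as radioligand bound by untransfected cells, binding buffer with or without 2% HSA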
Method: as §1

[3] = target: T1, human GIP receptor; assay: cell-based or functional assay
[4] = target: T1, human GIP receptor; assay: 125I-hGIP competition binding, COS-7/hGIPR, 0.1% casein;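 also: nonspecific binding defined as radioligand binding measured on untransfected cells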
Method: as §1

[5] = target: T1, human GIP receptor; assay: 125I-hGIP competition binding, COS-7/hGIPR, 2% HSA;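 also: nonspecific binding defined as radioligand binding to untransfected cells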
Method: as §1

Row | Binder | Fold change HSA (2%)/Casein (0.1%) [1] [fold] | IC50 [2] [nM] | log IC50 [2] [log M] | cAMP agonism, Emax [3] | cAMP antagonism [3] [nM] | cAMP antagonism, log [3] [log M] | IC50 [4] [nM] | logIC50 [4] [log M] | IC50 [5] [nM] | logIC50 [5] [log M] | cAMP agonism [3] [nM] | cAMP agonism, EC50 (log) [3] [log M]
1 | B1 | 3.5 | 80 | -7.1 | 0 | 23 | -7.6 | 79.4 | -7.1 | 282 | -6.6 | – | –
2 | B2 | 7.8 | 73 | -7.1 | 0 | 17 | -7.8 | 72.4 | -7.1 | 562 | -6.3 | – | –
3 | B3 | 4.9 | 114 | -6.9 | 12 | 121 | -6.9 | 115 | -6.9 | 562 | -6.3 | 121 | -7
4 | B4 | 3.8 | 134 | -6.9 | 30 | 59 | -7.2 | 135 | -6.87 | 513 | -6.29 | 59 | -7
5 | B5 | 3 | 66 | -7.2 | 0 | 33 | -7.5 | 66.1 | -7.2 | 195 | -6.7 | – | –
6 | B6 | 3.6 | 453 | -6.3 | 32 | 89 | -7.1 | 10.5 | -7.98 | 38 | -7.42 | 89 | -7
